For 2 sequences, Kd results are on record in paper PMC10202413.

The target of this series is T1, protein tyrosine kinase 7 (PTK-7) on HCT-116 cells (UniProt Q13308).
T1 sequence: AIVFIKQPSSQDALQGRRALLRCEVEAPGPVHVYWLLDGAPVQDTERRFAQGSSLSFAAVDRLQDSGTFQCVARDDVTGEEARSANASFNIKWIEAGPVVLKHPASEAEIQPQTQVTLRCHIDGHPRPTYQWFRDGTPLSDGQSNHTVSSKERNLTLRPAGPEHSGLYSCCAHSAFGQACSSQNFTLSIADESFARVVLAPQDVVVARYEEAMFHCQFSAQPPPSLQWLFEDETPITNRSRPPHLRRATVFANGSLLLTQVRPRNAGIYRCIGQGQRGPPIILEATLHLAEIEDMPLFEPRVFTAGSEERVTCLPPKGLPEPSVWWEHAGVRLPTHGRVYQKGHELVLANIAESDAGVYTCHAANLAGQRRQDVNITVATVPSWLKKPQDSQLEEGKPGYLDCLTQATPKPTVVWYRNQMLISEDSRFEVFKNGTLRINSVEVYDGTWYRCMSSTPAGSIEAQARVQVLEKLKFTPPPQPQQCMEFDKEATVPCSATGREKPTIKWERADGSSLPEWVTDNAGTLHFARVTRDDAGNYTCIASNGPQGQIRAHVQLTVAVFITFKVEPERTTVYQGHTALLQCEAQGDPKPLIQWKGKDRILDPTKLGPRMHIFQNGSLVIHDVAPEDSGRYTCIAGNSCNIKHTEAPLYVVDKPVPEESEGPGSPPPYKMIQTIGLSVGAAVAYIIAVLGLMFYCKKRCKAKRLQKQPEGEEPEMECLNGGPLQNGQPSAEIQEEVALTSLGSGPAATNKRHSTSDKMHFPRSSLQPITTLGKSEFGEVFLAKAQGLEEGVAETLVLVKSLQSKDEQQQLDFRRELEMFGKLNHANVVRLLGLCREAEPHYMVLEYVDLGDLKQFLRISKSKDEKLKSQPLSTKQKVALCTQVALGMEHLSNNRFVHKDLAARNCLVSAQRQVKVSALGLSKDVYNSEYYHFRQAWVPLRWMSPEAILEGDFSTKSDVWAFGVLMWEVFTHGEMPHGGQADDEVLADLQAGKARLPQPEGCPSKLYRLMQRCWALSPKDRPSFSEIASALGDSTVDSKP
The series is described as follows: flow cytometry, cell binding. As to conditions: 5 mM Mg2+, Whole cells washed in D-PBS with 4.5 g/L glucose and 5 mM MgCl2, 300,000 cells in 200 ul binding buffer (composition and pH not stated), on ice 30 min …. For orientation: In flow cytometry, cells or beads pass a laser one at a time.

What is called Kd is the constant that tells how readily two partners part at equilibrium. “ATCTAACTGCTGCGCCGCCGGGAAAATACTGTACGGTTAGA [NOTA-SGC8]” showed a Kd (5' amino coupled to p-SCN-Bn-NOTA) of 3.49 nM. “ATCTAACTGCTGCGCCGCCGGGAAAATACTGTACGGTTAGA [SGC8]” displayed a Kd of 1.88 nM.
